Measurements published in US12062453B2, “Self-titrating bacterial protease-activated prodrug” (GEORGIA TECH RESEARCH CORPORATION, priority 2018, dated 2024).
Where two headings read alike, the source gives them in different places.

Columns and labels:
OmpT [1] = target: T1, OmpT (Escherichia coli, UniProt P09169); assay type: cell-based, E. coli; parameters: OmpT expressed on the surface of E. coli; endogenous in cells; host or cells: DH5a Escherichia coli
Experimental: To model the rate of enzymatic activation of locked drugs, L, by OmpT, Michaelis-Menten (MM) kinetics were applied, where the rate of substrate activation is determined by the catalytic rate of the reaction, kcat, and the half-maximal substrate concentration, Km (Equation 1.3). Here it was assumed the system constituted a well-mixed solution of freely diffusing substrates (i.e., locked drug) in large excess, which were valid assumptions for this study since AMP prodrug was present at concentrations ˜102 micromolar in an aqueous environment. Because the total amount of drug is conserved, the MM activation rate of unlocked drug, U, was defined as opposite of the degradation rate of locked drug L (Equation 1.4). A term to account for the loss of active AMPS was included according to a proportionality constant, a*, that represents the number AMP required to kill one E. coli. This term was necessary as AMPS lyse E. coli by intercalating with bacterial membranes (Roversi, et al. ACS Chemical Biology, 9:2-3-2007 (2014)) and therefore are removed from the system and unable to target additional bacteria.
To fit this model to the disclosed system, the values for relevant parameters, including enzymatic efficiency (e.g., kcat, Km), bacterial growth (e.g., r, Bmax), and prodrug activity (e.g., a, a*) were measured (FIGS. 2A-2D, Table 2). This allowed for the prediction of bacteria-prodrug response curves (FIGS. 3B-3J) across nine distinct combinations of kcat and r values, which were experimentally controlled by altering the ambient temperature and concentration of broth (conditions labeled A1-3, B1-3, and C1-3). […] To experimentally validate the model predictions, bacteria were incubated with prodrugs under the defined nine conditions, and the number of living bacteria were quantified longitudinally over the course of a 24 hour treatment window. […]

DH5a Escherichia coli = assay type: cell-based
Experimental: Bacterial culture and cytotoxicity measurement: DH5a Escherichia coli were a gift from Todd Sulchek's BioMEMS lab at Georgia Tech. E. coli were cultured in LB broth (Lennox) at 37 C and plated on LB agar (Lennox) plates. LB broth was purchased from Millipore Sigma (Burlington, Mass.) and LB agar was purchased from Invitrogen (Carlsbad, Calif.). AMP and locked AMP were custom ordered from Genscript (Piscataway, NJ). […] Concentration was estimated by measuring the OD600 of the bacterial suspension, and assuming an OD600 of 1.000 corresponds to a concentration of 8×10^8 CFU/mL. Bacterial cell viability was measured by making eight 10-fold serial dilutions, and plating three 10 uL spots on an LB agar plate. Plates were incubated overnight at 37° C., and CFUs were counted.

[2] = target: T2, OmpT expressed on the surface of E. coli (Escherichia coli, UniProt P09169); assay type: cell-based
T2 construct: OmpT expressed on the surface of E. coli; endogenous in cells; host or cells: DH5a Escherichia coli
T2 sequence (P09169 21-317): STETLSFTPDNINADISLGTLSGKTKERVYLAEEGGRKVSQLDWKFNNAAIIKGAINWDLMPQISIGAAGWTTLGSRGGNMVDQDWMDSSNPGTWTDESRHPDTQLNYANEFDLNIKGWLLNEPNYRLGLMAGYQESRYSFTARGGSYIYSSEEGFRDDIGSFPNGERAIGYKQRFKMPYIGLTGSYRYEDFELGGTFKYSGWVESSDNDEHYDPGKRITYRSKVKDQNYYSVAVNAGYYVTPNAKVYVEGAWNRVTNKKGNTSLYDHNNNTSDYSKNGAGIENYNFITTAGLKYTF

OmpT [3] = target: T1, OmpT; assay type: biochemical, E. coli; parameters: purchased Lifespan Biosciences (Seattle, WA)
Experimental: Protease Cleavage Assays: All protease cleavage assays were performed with a BioTek Cytation 5 Imaging Plate Reader, taking fluorescent measurements at 485/528 nm (excitation/emission) for read-outs measuring peptide substrates terminated with FITC (Fluorescein isothiocyanate). Kinetic measurements were taken every minute over the course of 60-120 minutes at 37 C. Tobacco Etch Virus protease (TEVp), along with its substrate and buffer was obtained from Anaspec, Inc. (Fremont, Calif.). Activity RFU measurements were normalized to time 0 measurement, and as such represent fold change in signal. Outer Membrane Protease T (i.e., OmpT, Protease 7) was purchased from Lifespan Biosciences (Seattle, WA). OmpT fluorescent peptide substrate was custom ordered from Genscript (Piscataway, NJ).

T1 sequence (P09169 21-317): as above

## AMP: cationic (polyarginine) antimicrobial peptide, the unlocked drug (KLAKLAKKLAKLAK; Bacterial protease substrate)
OmpT [1]
  a*, AMP decay (number of AMP required to kill one E. coli): 2.4e11 AMP/bacteria
  a, cytotoxic efficiency, EC50: 1e11 h^−1, AMP/bacteria/hr
DH5a Escherichia coli
  Cytotoxicity of unlocked drug (colonies): significant reduction in colonies

## Aprotinin
DH5a Escherichia coli; locked AMP plus Aprotinin inhibitor
  Bacteria load after prodrug treatment: did not significantly reduce bacteria load
[2]; live E. coli culture plus inhibitor
  OmpT activity in samples containing inhibitor: no activity was observed
OmpT [3]; recombinant OmpT plus inhibitor
  OmpT activity in samples containing inhibitor: no activity was observed

## DABCYL-RRSRRV-Lys(5-FAM) [OmpT Probe]
[2]; live E. coli culture
  OmpT cleavage activity against fluorophore-quencher linker probe: OmpT activity was detected
OmpT [3]; recombinant OmpT
  OmpT cleavage activity against fluorophore-quencher linker probe: OmpT activity was detected

## EEEEEEEEEEEEERRSRRVRRRRRRRRR [Locked AMP (linker 1)]
OmpT [1]
  Km, Michaelis constant: 9e+12 µL⁻¹
OmpT [1]; condition A1: 37 °C, LB broth 0%
  kcat: 25 h^−1 × 10^10
OmpT [1]; condition A2: 30 °C, LB broth 2%
  kcat: 13.6 h^−1 × 10^10
OmpT [1]; condition A3: 37 °C, LB broth 2%
  kcat: 22 h^−1 × 10^10
OmpT [1]; condition B1: 37 °C, LB broth 4%
  kcat: 15 h^−1 × 10^10
OmpT [1]; condition B2: 37 °C, LB broth 6%
  kcat: 13.6 h^−1 × 10^10
OmpT [1]; condition B3: 37 °C, LB broth 20%
  kcat: 1 h^−1 × 10^10
OmpT [1]; condition C1: 30 °C, LB broth 20%
  kcat: 5.2 h^−1 × 10^10
OmpT [1]; condition C2: 30 °C, LB broth 66%
  kcat: 4 h^−1 × 10^10
OmpT [1]; condition C3: 37 °C, LB broth 66%
  kcat: 6 h^−1 × 10^10
OmpT [1]; range over conditions
  kcat, enzyme catalytic turnover: 0.7-25e10 h^−1
DH5a Escherichia coli; prodrug alone
  Bacteria load after prodrug treatment: Elimination of bacteria

## EEEEEEEEENLYFQGRRRRRRRRR [Locked AMP (linker 3)]
DH5a Escherichia coli; prodrug alone
  Bacteria load after prodrug treatment: did not significantly reduce bacteria load
DH5a Escherichia coli; prodrug plus TEV protease
  Bacteria load after prodrug treatment: Elimination of bacteria
